Measurements: article PMC6529640, “Bacterioferritin of Magnetospirillum gryphiswaldense Is a Heterotetraeicosameric Complex Composed of Functionally Distinct Subunits but Is Not Involved in Magnetite Biomineralization” (mBio, 2019)

Target: the molecule itself
Assay: native gel or EMSA; BN-PAGE of purified proteins on polyacrylamide gradient gels, run at 4°C, Coomassie stained; Bfr2 and Bfr12 ~22 μM, Bfr1 ~30 μM in 50 mM Tris-HCl, 50 mM NaCl, pH 8.0, or Bfr12 dialysed against 50 mM imidazole-HCl, 50 mM NaCl, pH 7; for Bfr12 also a second dimension of SDS-PAGE (2D-BN/SDS-PAGE)

B1: Bfr1 of MSR-1 expressed alone from pET-51b-Bfr1 (natural protein, Magnetospirillum gryphiswaldense MSR-1, UniProt A0ACM8UIY5 1-159, looked up)
chain: MRGSPKVISVLNGLLTGELTAADQYFVHARMLENWGFKVLYERIEHERHDELDHAGLLINRILFLEGVPDVASRAALNIGSDVPKMMANDLAYELQVVDELKAAIALCESERDYDTRRILVHLLEETEQDHVRWLEVQVGLIDKLGLKNYLQSAAGEIA
notes: bacterioferritin subunit Bfr1, Magnetospirillum gryphiswaldense MSR-1, locus MSR1_27050; expressed without Bfr2
stoichiometry N: 3
